Experimental data taken from PMC10983743.

Target: T1, Podoplanin (PDPN) on PDPN+ B16-F0 murine melanoma cells (mouse (endogenous in B16-F0)) (UniProt Q62011)
T1 sequence: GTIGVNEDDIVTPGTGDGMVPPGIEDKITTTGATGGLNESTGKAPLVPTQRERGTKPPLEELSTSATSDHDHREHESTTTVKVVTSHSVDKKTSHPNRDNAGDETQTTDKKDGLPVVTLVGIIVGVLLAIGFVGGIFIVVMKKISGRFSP

B1: C-type lectin-like receptor 2 (CLEC-2) on platelets of WT C57BL/6J mice (receptor)
chain: MQDEDGYITLNIKPRKQALSSAEPASSWWRVMALVLLISSMGLVVGLVALGIMSVTQQKYLLAEKENLSATLQQLAKKFCQELIRQSEIKTKSTFEHKCSPCATKWRYHGDSCYGFFRRNLTWEESKQYCTEQNATLVKTASQSTLDYIAERITSVRWIGLSRQNSKKDWMWEDSSVLRKNGINLSGNTEENMNCAYLHNGKIHPASCKERHYLICERNAGMTRVDQLL
**Q.** For B1, which percent of tumour cells associated with platelets, counted under a fluorescence microscope (WT platelets mixed with PDPN+ B16-F0 cells, 1:200 tumour cells:platelets, 20 min at 37 °C) is on record?
**A.** 65%
